Experimental data taken from patent publication US20120316071A1 (published 2012).
Changes are numbered by the printed parent chain. In names and notes the source's numbering stands. Blank lines part the entries; values can stand above or below the binder they belong to.

Assays:
[1] = biological target: T1, rHuman ErbB2/Fc Chimera, CF (R&D Systems Cat#1129-ER) (human, UniProt P04626 23-652); experiment: Multispot ECL (MSD) binding screen, antigen spotted on plate; hit = signal/blank >= 4
T1 construct: Bought Fc chimera; also called human epidermal growth factor 2 receptor; Fc part of the bought chimera not given

[2] = biological target: T2, Recombinant Human DLL4 (R&D Systems Cat#1506-D4/CF) (human, UniProt Q9NR61 27-524); experiment: ECL multispot (MSD) assay, antigen spotted on plate, Fab at 0.01 µM
T2 construct: Bought recombinant protein; also called delta-like protein 4; rHuman DLL4

[3] = biological target: T3, rHuman CD44/Fc Chimera, CF (R&D Systems Cat#3660-CD) (human, UniProt P16070 21-220); experiment: as above
T3 construct: Bought recombinant protein; Fc part of the bought chimera not given

[4] = biological target: T4, rHuman ErbB2/Fc Chimera, CF (R&D Systems Cat#1129-ER) (human, UniProt P04626 23-652); experiment: as above
T4 construct: Bought recombinant protein; also called human epidermal growth factor 2 receptor; Fc part of the bought chimera not given

[5] = biological target: T5, rHuman Notch-1/Fc Chimera, CF (R&D Systems Cat#3647-TK) (human, UniProt P46531 19-526); experiment: as above
T5 construct: Bought recombinant protein; Fc part of the bought chimera not given

[6] = biological target: T6, rHuman EGF R/Fc Chimera, CF (R&D Systems Cat#344-ER) (human, UniProt P00533 25-645); experiment: as above
T6 construct: Bought recombinant protein; also called epidermal growth factor receptor; Fc part of the bought chimera not given

[7] = biological target: T7, rHuman P-Cadherin/Fc Chimera, CF (R&D Systems Cat#861-PC) (human, UniProt P22223 108-654); experiment: as above
T7 construct: Bought recombinant protein; Fc part of the bought chimera not given

[8] = biological target: T8, rHuman HGF R/c-MET/Fc Chimera, CF (R&D Systems Cat#358-MT/CF) (human, UniProt P08581 25-932); experiment: as above
T8 construct: Bought recombinant protein; also called HGF R/Fc; hepatocyte growth factor receptor; Fc part of the bought chimera not given

[9] = biological target: T9, rHuman Erythropoietin R/Fc Chimera, CF (R&D Systems Cat#963-ER) (human, UniProt P19235 25-250); experiment: as above
T9 construct: Bought recombinant protein; also called EPO R; EPO R/Fc; Fc part of the bought chimera not given
T9 sequence (looked up): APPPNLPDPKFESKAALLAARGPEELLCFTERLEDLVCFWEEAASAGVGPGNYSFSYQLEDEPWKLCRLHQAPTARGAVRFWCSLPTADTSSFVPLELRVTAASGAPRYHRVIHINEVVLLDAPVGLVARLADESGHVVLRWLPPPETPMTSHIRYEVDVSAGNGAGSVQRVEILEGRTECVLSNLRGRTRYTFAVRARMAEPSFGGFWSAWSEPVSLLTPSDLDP

[10] = biological target: T10, rHuman IGF-1 sR, CF (R&D Systems Cat#391-GR) (human, UniProt P08069 31-932); experiment: as above
T10 construct: Bought recombinant soluble receptor; also called insulin-like growth factor-1 soluble receptor

[11] = biological target: T11, rHuman Erythropoietin R/Fc Chimera (human, UniProt P19235 25-250); experiment: ECL multispot (MSD) binding assay; antigen spotted on plate, Fab in solution;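 further: purified Fab bound for 1 h at 20 °C, detected with a TAG-labelled antibody, electrochemiluminescence compared with each well's blank, signal-to-blank ratio of at least 4 scored as hit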
T11 construct: also called EPO R; EPO R/Fc
T11 sequence (looked up): T9 sequence (looked up)

[12] = biological target: T12, rHuman Notch-1/Fc Chimera (human, UniProt P46531 19-526); experiment: as above
T12 construct: Bought from R&D Systems (Cat#3647-TK)

[13] = biological target: rHuman CD44/Fc Chimera (human, UniProt P16070 21-220); experiment: as above
[14] = biological target: rHuman EGF R/Fc Chimera (human, UniProt P00533 25-645); experiment: as above
[15] = biological target: T13, rHuman HGF R/c-MET/Fc Chimera (human, UniProt P08581 25-932); experiment: as above
T13 construct: also called HGF R/Fc

[16] = biological target: rHuman ErbB2/Fc Chimera (human, UniProt P04626 23-652); experiment: as above
[17] = biological target: T14, rHuman P-Cadherin/Fc Chimera (human, UniProt P22223 108-654); experiment: as above
T14 construct: Bought from R&D Systems (Cat#861-PC)

[18] = biological target: T15, Recombinant Human DLL4 (delta-like protein 4) (human, UniProt Q9NR61 27-529); experiment: as above
T15 construct: Bought from R&D Systems (Cat#1506-D4/CF); also called rHuman DLL4

[19] = biological target: rHuman IGF-1 sR (insulin-like growth factor-1 soluble receptor) (human, UniProt P08069 31-932); experiment: as above
[20] = biological target: T16, Recombinant Human DLL4 (R&D Systems Cat#1506-D4/CF) (human, UniProt Q9NR61 27-524); experiment: ECL multispot (MSD) binding assay; DLL4 spotted on the plate, purified Fab added
T16 construct: Bought recombinant protein; also called delta-like protein 4; rHuman DLL4

[21] = biological target: T16, Recombinant Human DLL4 (R&D Systems …); experiment: ECL multispot (MSD) binding assay; DLL4 signal over blank spot
[22] = biological target: T17, rHuman Erythropoietin R/Fc Chimera, CF (R&D Systems Cat#963-ER) (human, UniProt P19235 25-250); experiment: ECL multispot (MSD), antigen spotted, 10 nM Fab; blank spot of this row 271
T17 construct: Bought recombinant protein; also called EPO R; EPO R/Fc; Fc part of the bought chimera not given
T17 sequence (looked up): T9 sequence (looked up)

[23] = biological target: T18, rHuman EGF R/Fc Chimera, CF (R&D Systems Cat#344-ER) (human, UniProt P00533 25-645); experiment: as above
T18 construct: Bought recombinant protein; also called epidermal growth factor receptor; Fc part of the bought chimera not given

[24] = biological target: T19, rHuman P-Cadherin/Fc Chimera, CF (R&D Systems Cat#861-PC) (human, UniProt P22223 108-654); experiment: as above
T19 construct: Bought recombinant protein; Fc part of the bought chimera not given

[25] = biological target: T20, rHuman CD44/Fc Chimera, CF (R&D Systems Cat#3660-CD) (human, UniProt P16070 21-220); experiment: as above
T20 construct: Bought recombinant protein; Fc part of the bought chimera not given

[26] = biological target: T21, rHuman IGF-1 sR, (IGF-1 sR), CF (R&D Systems Cat#391-GR) (human, UniProt P08069 31-932); experiment: as above
T21 construct: Bought recombinant soluble receptor; also called insulin-like growth factor-1 soluble receptor

[27] = biological target: T22, rHuman Notch-1/Fc Chimera, CF (R&D Systems Cat#3647-TK) (human, UniProt P46531 19-526); experiment: as above
T22 construct: Bought recombinant protein; Fc part of the bought chimera not given

[28] = biological target: T23, rHuman ErbB2/Fc Chimera, CF (R&D Systems Cat#1129-ER) (human, UniProt P04626 23-652); experiment: as above
T23 construct: Bought recombinant protein; also called human epidermal growth factor 2 receptor; Fc part of the bought chimera not given

[29] = biological target: T24, Recombinant Human DLL4 (delta-like protein 4) (human, UniProt Q9NR61 27-524); experiment: ECL Multispot (MSD) binding assay, DLL4 spotted on plate, 10 nM Fab; ECL signal over blank spot
T24 construct: Bought recombinant protein (R&D Systems Cat#1506-D4/CF), spotted on the MSD plate; also called rHuman DLL4; Delta-like 4

[30] = biological target: T25, Recombinant Human DLL4 (delta-like protein 4) (human, UniProt Q9NR61 27-524); experiment: ECL Multispot (MSD) binding assay, DLL4 spotted on plate, 10 nM Fab
T25 construct: Bought recombinant protein (R&D Systems Cat#1506-D4/CF); also called rHuman DLL4; Delta-like 4

T13 sequence (P08581 25-932, change not shown): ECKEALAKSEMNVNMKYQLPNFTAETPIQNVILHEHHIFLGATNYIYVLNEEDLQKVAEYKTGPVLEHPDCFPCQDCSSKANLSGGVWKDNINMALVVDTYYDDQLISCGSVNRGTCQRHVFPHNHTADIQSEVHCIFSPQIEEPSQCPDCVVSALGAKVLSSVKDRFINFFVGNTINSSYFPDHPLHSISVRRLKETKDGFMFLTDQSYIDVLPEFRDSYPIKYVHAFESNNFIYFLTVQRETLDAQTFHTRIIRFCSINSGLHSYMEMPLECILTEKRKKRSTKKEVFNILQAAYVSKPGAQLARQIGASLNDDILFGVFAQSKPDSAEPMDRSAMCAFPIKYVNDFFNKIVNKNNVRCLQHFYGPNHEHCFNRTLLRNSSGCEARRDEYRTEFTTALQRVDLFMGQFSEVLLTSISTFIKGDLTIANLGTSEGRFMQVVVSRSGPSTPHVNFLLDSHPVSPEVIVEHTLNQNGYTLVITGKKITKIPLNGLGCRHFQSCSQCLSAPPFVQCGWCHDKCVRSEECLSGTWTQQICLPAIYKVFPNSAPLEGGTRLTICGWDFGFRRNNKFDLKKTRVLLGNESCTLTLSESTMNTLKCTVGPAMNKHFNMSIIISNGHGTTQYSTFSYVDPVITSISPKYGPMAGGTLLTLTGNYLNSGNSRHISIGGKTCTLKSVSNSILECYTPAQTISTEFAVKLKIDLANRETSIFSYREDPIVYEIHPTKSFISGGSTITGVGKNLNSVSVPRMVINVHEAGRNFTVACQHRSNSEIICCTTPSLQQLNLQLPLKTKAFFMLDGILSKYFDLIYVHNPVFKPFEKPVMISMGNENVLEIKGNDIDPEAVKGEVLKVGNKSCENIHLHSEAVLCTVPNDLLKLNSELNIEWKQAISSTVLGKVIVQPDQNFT
T8 sequence (P08581 25-932, change not shown): as above

B2: Fab VH1-46_IGHD6-6*01_IGHJ1*01 & L6_IGKJ1*01 (Fab, V domains shown)
VH: QVQLVQSGAEVKKPGASVKVSCKASGYTFTSYYMHWVRQAPGQGLEWMGIINPSGGSTSYAQKFQGRVTMTRDTSTSTVYMELSSLRSEDTAVYYCAREEYSSSSAEYFQHWGQGTLVTVSS
VL: not shown
notes: Tested as a Fab expressed in E. coli; The heavy chain variable region was cloned into Plasmid A (CH1, His6 and Flag tags) and the kappa light chain variable region into Plasmid C (kappa CL); also called Parent; parental
ECL signal/noise ratio [2]: 4.9 | ECL signal/noise ratio [3]: 1.1 | ECL signal/noise ratio [4]: 1 | ECL signal/noise ratio [5]: 0.5 | ECL signal/noise ratio [6]: 0.9 | ECL signal/noise ratio [7]: 1 | ECL signal/noise ratio [8]: 0.9 | ECL signal/noise ratio [9]: 1 | ECL signal/noise ratio [10]: 0.8

B3: Fab VH1-46_IGHD6-6*01_IGHJ1*01 S102A/S103P/S104F/H111F (APFF) & L6_IGKJ1*01 S92C (Fab, V domains shown)
VH: B2 VH with S102A, S103P, S104F, H111F
VL: EIVLTQSPATLSLSPGERATLSCRASQSVSSYLAWYQQKPGQAPRLLIYDASNRATGIPARFSGSGSGTDFTLTISSLEPEDFAVYYCQQRCNWPPWTFGQGTKVEIKR
notes: Tested as Fab made in E. coli: VH cloned into Plasmid A (CH1, His6 and Flag tags), kappa VL into Plasmid C (kappa CL); also called APFF / S92C
ECL signal [11]: 742 | ECL signal [12]: 642 | ECL signal [13]: 554 | ECL signal [14]: 588 | ECL signal [15]: 589 | ECL signal [16]: 526 | ECL signal [17]: 805 | ECL signal [18]: 1230 | ECL signal [19]: 642

B4: Fab VH1-46_IGHD6-6*01_IGHJ1*01 S102A/S103P/S104F/H111F (APFF) & L6_IGKJ1*01 (Fab, V domains shown)
VH: B2 VH with S102A, S103P, S104F, H111F
VL: not shown
notes: Tested as an E. coli-expressed Fab; also called H:APFF & L:wt; APFF parent
ECL signal [20]: 189000 ECL counts | Signal/Blank [21]: 611 ratio

B5: Fab VH1-46_IGHD6-6*01_IGHJ1*01 S102A/S103P/S104F G55W & L6_IGKJ1*01 (Fab, V domains shown)
VH: B2 VH with G55W, S102A, S103P, S104F
VL: not shown
notes: Tested as Fab (CH1 with His6 and Flag tags, kappa CL); also called APF G55W
ECL signal [22]: 296 | ECL signal [23]: 312 | ECL signal [24]: 391 | ECL signal [25]: 159 | ECL signal [26]: 250 | ECL signal [27]: 327 | ECL signal [28]: 334

B6: Fab VH1-46_IGHD6-6*01_IGHJ1*01 S102A/S103P/S104F/H111F & L6_IGKJ1*01 (Fab, V domains shown)
VH: B2 VH with S102A, S103P, S104F, H111F
VL: not shown
notes: Fab format is as for m1 (CH1 with His6/Flag from Plasmid A, kappa CL from Plasmid C); also called APFF; H:APFF & L:wt
Signal/Noise [29]: 42.5

B8: Fab VH1-46_IGHD6-6*01_IGHJ1*01 S102A/S103P/S104F H111S & L6_IGKJ1*01 (Fab, V domains shown)
VH: B2 VH with S102A, S103P, S104F, H111S
VL: not shown
notes: Fab format is as for m1 (CH1 with His6/Flag from Plasmid A, kappa CL from Plasmid C); also called APF H111S
Signal/Noise [29]: 24

B9: Fab VH1-46_IGHD6-6*01_IGHJ1*01 S102A/S103P/S104F A106E & L6_IGKJ1*01 (Fab, V domains shown)
VH: B2 VH with S102A, S103P, S104F, A106E
VL: not shown
notes: Tested as Fab; also called APF A106E
Signal/Noise [30]: 4.3

B11: Fab VH1-46_IGHD6-6*01_IGHJ1*01 S102A/S103P/S104F G55W & L6_IGKJ1*01 (Fab, V domains shown)
VH: B2 VH with G55W, S102A, S103P, S104F
VL: not shown
notes: Tested as Fab; also called APF G55W
Signal/Noise [30]: 8

The remaining lines, values ahead:

binding result [1]: binds
B1: Fab VH1-69_IGHD1-1*01_IGHJ6*01 & A17_IGKJ1*01 (Fab, V domains shown)
VH: QVQLVQSGAEVKKPGSSVKVSCKASGGTFSSYAISWVRQAPGQGLEWMGGIIPIFGTANYAQKFQGRVTITADKSTSTAYMELSSLRSEDTAVYYCARGYNWNDDYYYYYGMDVWGQGTTVTVSS
VL: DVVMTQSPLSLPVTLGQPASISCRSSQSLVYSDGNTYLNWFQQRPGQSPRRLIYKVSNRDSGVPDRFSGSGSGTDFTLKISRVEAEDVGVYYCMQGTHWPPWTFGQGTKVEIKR
notes: Fab; expressed in E. coli from Plasmid A (CH1, His6 and Flag tags) and Plasmid C (kappa CL)

ECL signal [14]: 326 | ECL signal [15]: 185 | ECL signal [16]: 289 | ECL signal [17]: 295 | ECL signal [18]: 189000 | ECL signal [19]: 336
B7: Fab VH1-46_IGHD6-6*01_IGHJ1*01 S102A/S103P/S104F/H111F (APFF) & L6_IGKJ1*01 (Fab, V domains shown)
VH: B2 VH with S102A, S103P, S104F, H111F
VL: not shown
notes: Tested as Fab (CH1 with His6/Flag tags from Plasmid A; kappa CL from Plasmid C); also called APFF / parent; H:APFF & L:wt

ECL signal [20]: 91400 ECL counts | Signal/Blank [21]: 281 ratio
B10: Fab VH1-46_IGHD6-6*01_IGHJ1*01 S102A/S103P/S104F/H111F (APFF) & L6_IGKJ1*01 S92G (Fab, V domains shown)
VH: B2 VH with S102A, S103P, S104F, H111F
VL: B3 VL with C92G
notes: Fab with CH1 (His6 and Flag tags) and kappa CL from the expression vectors; also called APFF & S92G

binding result [1]: binds
B12: Fab VH2-5_IGHD7-27*01_IGHJ2*01 & L2_IGKJ1*01 (Fab, V domains shown)
VH: QITLKESGPTLVKPTQTLTLTCTFSGFSLSTSGVGVGWIRQPPGKALEWLALIYWNDDKRYSPSLKSRLTITKDTSKNQVVLTMTNMDPVDTATYYCAHRPNWGYWYFDLWGRGTLVTVSS
VL: not shown
